From article PMC5762878 come the findings set out here.

Test [1] addresses Recombinant flavin reductase (rFlaR), HAT-tagged (Streptococcus pneumoniae (strain WU2)). As to the kind of experiment: SDS-PAGE with or without β-mercaptoethanol + MALDI-TOF of the bands; HAT-tagged rFlaR purified on Ni-NTA under denaturing conditions; reducing gel: major band 22 kDa, minor 45 kDa; non-reducing gel: 45 kDa major, 22 kDa minor; both bands identified by in-gel digestion and MALDI-TOF and detected by rabbit anti-rFlaR antiserum.

Test [2] addresses Flavin reductase (FlaR), endogenous in S. pneumoniae WU2 (Streptococcus pneumoniae (endogenous in strain WU2)). As to the kind of experiment: SDS-PAGE and immunoblot of cell fractions; cytoplasmic and cell-wall fractions of WU2 WT, immunoblotted with rabbit anti-rFlaR antiserum; bands at ~17 kDa and 34 kDa in the cytoplasm, 34 kDa band also in the cell-wall fraction. On the technique in general: In western blotting, separated proteins are transferred to a membrane and probed.

As usually defined, the stoichiometry N is a count of units in the complex or per binding partner. For the substance “Recombinant flavin reductase (rFlaR), HAT-tagged (from UniProt A0ACD7PR00 1-174) (enzyme)”, in test [1], the stoichiometry N was determined as 2. Take “Flavin reductase (FlaR), endogenous in S. pneumoniae WU2 (from UniProt A0ACD7PR00 1-174) (enzyme)”: in test [2], the stoichiometry N came to 2.
